Residue numbers refer to the chain shown, from its start. Names may count otherwise. One block for each binder: values may come before it.
How the values were obtained:
M1-linked Ub4 [1] = biological target: M1-linked Ub4 (UniProt P0CG48); assay: NMR titration
HOTag6-G10-Ub [2] = assay: NMR titration
M1-linked Ub4 [3] = biological target: M1-linked Ub4 (UniProt P0CG48); assay: fluorescence polarisation
HOTag6-G10-Ub [4] = assay: fluorescence polarisation
ubiquitin (Ub) = ubiquitin (Ub) (UniProt P0CG48 1-76); assay: fluorescence polarisation

Chain of M1-linked Ub4 (P0CG48 1-304): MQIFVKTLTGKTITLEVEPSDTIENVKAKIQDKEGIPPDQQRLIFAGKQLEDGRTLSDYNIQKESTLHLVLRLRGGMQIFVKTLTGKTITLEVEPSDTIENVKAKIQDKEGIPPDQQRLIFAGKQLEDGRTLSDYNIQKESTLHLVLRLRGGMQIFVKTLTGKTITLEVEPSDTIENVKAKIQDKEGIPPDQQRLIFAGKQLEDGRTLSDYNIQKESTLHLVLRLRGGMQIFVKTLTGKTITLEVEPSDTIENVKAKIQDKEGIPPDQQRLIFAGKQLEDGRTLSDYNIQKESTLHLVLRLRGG

Kd (M1-linked Ub4 [1]): 12.8 µM | Kd (HOTag6-G10-Ub [2]): 8.8 µM
B1: UBQLN2 450-624 (domain or fragment)
chain: RAMQALMQIQQGLQTLATEAPGLIPSFTPGVGVGVLGTAIGPVGPVTPIGPIGPIVPFTPIGPIGPIGPTGPAAPPGSTGSGGPTGPTVSSAAPSETTSPTSESGPNQQFIQQMVQALAGANAPQLPNPEVRFQQQLEQLNAMGFLNREANLQALIATGGDINAAIERLLGSQPS

Kd (M1-linked Ub4 [3]): 5.1 µM | Kd (HOTag6-G10-Ub [4]): 7 µM | Kd (ubiquitin (Ub)): 3.4 µM
B2: fluorescently-labeled UBQLN2 450-624 (S624C, Alexa Fluor 488) (domain or fragment)
chain: B1 chain with S175C
modifications: Alexa Fluor 488 C5 Maleimide label (S624C mutation)
